For the assay, the target named is T1, 人源IL-4R (human IL-4R), overexpressed on LN229, U251 and HEK293 cells (human, UniProt P24394 26-825).
T1 sequence (looked up): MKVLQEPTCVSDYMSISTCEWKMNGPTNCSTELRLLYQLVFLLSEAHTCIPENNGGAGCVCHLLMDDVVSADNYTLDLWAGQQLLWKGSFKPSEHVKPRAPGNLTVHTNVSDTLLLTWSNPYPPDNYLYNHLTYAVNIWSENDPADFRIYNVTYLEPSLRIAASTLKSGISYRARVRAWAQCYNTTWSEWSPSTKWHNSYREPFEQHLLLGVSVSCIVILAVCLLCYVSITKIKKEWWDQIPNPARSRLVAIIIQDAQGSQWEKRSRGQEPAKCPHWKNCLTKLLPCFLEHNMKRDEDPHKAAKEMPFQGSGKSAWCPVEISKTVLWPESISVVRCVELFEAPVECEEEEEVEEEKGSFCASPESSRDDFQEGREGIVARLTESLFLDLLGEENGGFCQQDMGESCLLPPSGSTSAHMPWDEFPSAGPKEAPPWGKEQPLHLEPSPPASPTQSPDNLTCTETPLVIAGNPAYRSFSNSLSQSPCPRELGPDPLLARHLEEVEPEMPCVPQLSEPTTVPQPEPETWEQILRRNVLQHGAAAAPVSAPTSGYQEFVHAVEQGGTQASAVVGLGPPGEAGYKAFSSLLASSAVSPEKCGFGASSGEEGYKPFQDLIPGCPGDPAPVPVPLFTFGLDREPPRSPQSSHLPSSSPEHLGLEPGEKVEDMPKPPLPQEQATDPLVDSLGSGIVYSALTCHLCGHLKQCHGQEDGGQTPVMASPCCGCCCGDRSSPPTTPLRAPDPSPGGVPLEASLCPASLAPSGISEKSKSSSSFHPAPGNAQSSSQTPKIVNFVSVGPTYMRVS
In words: cell-based or functional assay.

B1: 25G7-C1, DAR=5.86 (antibody, human IgG1, kappa, V domains shown)
VH: EVQLVESGGGLVQPGGSLRLSCAASGFTFSDYGMHWVRQAPGKGLEWVAFISSGSSIIYYADIVKGRSTISRDNAKNTLYLQMNSLRAEDTAVYYCTRGNKRGFFDYWGQGTLVTVSS
VL: EIVLTQSPATLSLSPGERATLSCRASSSVPYMYWYQQKPGQAPRLLIYLTSNLASGIPARFSGSGSGTDFTLTISSLEPEDFAVYYCQQWRAYPPMLTFGGGTKVEIKR
modifications: 依喜替康类似物 (exatecan analogue) joined through a linker; measured DAR 5.86; attachment residues not stated
Consider B1, for which the “IC50, 体外毒性 in HEK293-IL4R细胞” value was 0.458 nM.

B2: 25G7-C1, DAR=3.52 (antibody, human IgG1, kappa, V domains shown)
VH: B1 VH
VL: B1 VL
modifications: 依喜替康类似物 (exatecan analogue) joined through a linker; measured DAR 3.52; attachment residues not stated
With B2, the “IC50, 体外毒性 in HEK293-IL4R细胞” value was 3.29 nM.

These data come from patent publication CN114652853A (JIANGSU ZHEREI MEDICINE CO LTD; SHANGHAI TENGDI MEDICINE CO …, dated 2022).
